Experimental data from patent publication US8114638B2, “Arabinitol dehydrogenase from Neurospora crassa” (The Board of Trustees of the University of Illinois, priority 2007, dated 2012).

System: OC[C@H](O)C(O)[C@@H](O)CO
Test: purified protein, by the assay type
Settings: other: with indicated substrate, 25° C., 50 mM Tris pH 8.0, saturated NAD+ (2 mM)
Description: Initial rates were determined using a Varian Cary 100 Bio UV-visible spectrophotometer (Varian) at 25° C. in 50 mM Tris (pH 8.0). […] The kinetic data were analyzed with a modified version of Cleland's program (Cleland, W. W. (1979) Statistical analysis of enzyme kinetic data, Methods Enzymol 63, 103-138.).
Kinetics. The data were used to calculate the kinetic constants for various substrates by fitting the Michaelis-Menten equation using Origin 5.0. […] The data represent averages of assays performed in duplicate or triplicate on two separate occasions.

N. crassa LAD (Neurospora crassa OR74A) gave a Km of 18 ± 2 mM, a kcat of 20.2 ± 0.5 s⁻¹ and a kcat/Km of 1120 M⁻¹ s⁻¹.
